Substrate in the data set: C[N+](C)(C)C[C@H](O)CC(=O)[O-]
As to the kind of experiment: Tracer flux transport measurement in Xenopus laevis oocytes injected with cRNA comprising SEQ ID NO: 4. Format: cell-based, human. The following applies: other: concentration dependency of L-carnitine transport, Michaelis-Menten, uptake measured for 1 hour, FIG. 2. Here is the method: The transport measurements of radioactively labeled compounds were executed using Xenopus laevis oocytes in the so-called “tracer flux method”, wherein the transport rate of substrates across the oocyte membrane into the cytosol is determined.
A Xenopus laevis oocyte was injected with a cRNA molecule comprising SEQ ID NO: 4.
Injected oocytes were kept in the culture medium ORi comprising gentamycin (50 mg/L) at 18° C. until the measurement of substrate uptake. Injured, acutely altered or later heavily damaged cells were discarded.
After 72 hours the oocyte was used for screening for a carnitine transporter agonist or antagonist. […]
The oocytes were washed four times in 15 ml ice cold ORi. […] The radioactivity of the lysates was determined in a liquid scintillation counter comprising a correction for the luminescence and an external standard. Each vial was counted for 5 minutes. […]
For the determination of concentration-dependent substrate uptake serial dilutions of the investigated substrate were prepared and the radioactivity was distributed, such that in each reaction mixture between 10000 and 20000 cpm were counted in the supernatant. For the KM determination the substrate uptake was measured for 1 hour. […] The transport rates were calculated and graphically plotted against the substrate concentration and adapted mathematically according to the Michaelis-Menten equation.

B1: carnitine transporter comprising the amino acid sequence SEQ ID NO: 1 (Homo sapiens) (protein)
chain: MVRLVLPNPGLDARIPSLAELETIEQEEASSRPKWDNKAQYMLTCLGFCVGLGNVWRFPYLCQSHGGGAFMIPFLILLVLEGIPLLYLEFAIGQRLRRGSLGVWSSIHPALKGLGLASMLTSFMVGLYYNTIISWIMWYLFNSFQEPLPWSDCPLNENQTGYVDECARSSPVDYFWYRETLNISTSISDSGSIQWWMLLCLACAWSVLYMCTIRGIETTGKAVYITSTLPYVVLTIFLIRGLTLKGATNGIVFLFTPNVTELAQPDTWLDAGAQVFFSFSLAFGGLISFSSYNSVHNNCEKDSVIVSIINGFTSVYVAIVVYSVIGFRATQRYDDCFSTNILTLINGFDLPEGNVTQENFVDMQQRCNASDPAAYAQLVFQTCDINAFLSEAVEGTGLAFIVFTEAITKMPLSPLWSVLFFIMLFCLGLSSMFGNMEGVVVPLQDLRVIPPKWPKEVLTGLICLGTFLIGFIFTLNSGQYWLSLLDSYAGSIPLLIIAFCEMFSVVYVYGVDRFNKDIEFMIGHKPNIFWQVTWRVVSPLLMLIIFLFFFVVEVSQELTYSIWDPGYEEFPKSQKISYPNWVYVVVVIVAGVPSLTIPGYAIYKLIRNHCQKPGDHQGLVSTLSTASMNGDLKY
notes: expressed in transfected cells; host or cells: Xenopus laevis oocytes injected with cRNA
B1: the Michaelis constant (Km) – broadly, the substrate concentration at which the rate is half of its maximum – is 15 µM.
